Values quoted from earlier work, collected in publication PMC3648593.

Molecular target: Met (Homo sapiens) (UniProt P08581)
Sequence of UniProt P08581 (P08581 25-932): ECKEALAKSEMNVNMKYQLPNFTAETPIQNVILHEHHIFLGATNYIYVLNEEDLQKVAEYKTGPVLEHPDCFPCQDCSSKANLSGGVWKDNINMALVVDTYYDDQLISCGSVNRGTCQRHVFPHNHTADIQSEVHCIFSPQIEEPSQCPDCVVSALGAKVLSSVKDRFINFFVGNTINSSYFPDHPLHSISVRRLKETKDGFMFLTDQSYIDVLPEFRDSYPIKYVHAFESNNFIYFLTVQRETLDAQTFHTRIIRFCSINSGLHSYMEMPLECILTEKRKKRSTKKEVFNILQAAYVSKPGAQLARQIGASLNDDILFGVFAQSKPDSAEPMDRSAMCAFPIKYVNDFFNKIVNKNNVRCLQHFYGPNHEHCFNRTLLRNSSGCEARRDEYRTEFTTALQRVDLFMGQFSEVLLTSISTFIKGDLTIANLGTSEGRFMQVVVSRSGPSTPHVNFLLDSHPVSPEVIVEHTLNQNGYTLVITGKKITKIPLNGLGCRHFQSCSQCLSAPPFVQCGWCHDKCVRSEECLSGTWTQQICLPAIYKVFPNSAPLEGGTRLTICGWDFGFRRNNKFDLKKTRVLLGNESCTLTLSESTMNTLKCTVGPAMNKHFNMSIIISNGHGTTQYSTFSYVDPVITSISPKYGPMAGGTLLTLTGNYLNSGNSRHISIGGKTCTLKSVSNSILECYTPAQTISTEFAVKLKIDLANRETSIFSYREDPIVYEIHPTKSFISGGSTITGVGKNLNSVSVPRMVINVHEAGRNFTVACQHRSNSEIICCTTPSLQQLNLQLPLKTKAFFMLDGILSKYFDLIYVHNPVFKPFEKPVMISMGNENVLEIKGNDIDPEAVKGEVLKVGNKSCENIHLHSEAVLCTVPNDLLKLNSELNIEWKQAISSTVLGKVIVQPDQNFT

Kd: 2 nM
Substance: Decorin (from UniProt P07585)
